Reference: the nanobody polyreactivity screen of Harvey et al. (2022)

assay: yeast display, Sf9 membrane polyspecificity reagent, FACS + sequencing; frameworks hold sequencing errors
Procedure, shortened: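 Galactose induction of a Saccharomyces cerevisiae BJ5465 synthetic nanobody display library ran 36–48 hours. The cells were then stained for 1 hour at 4 °C with 10% biotinylated, detergent-solubilized Sf9 membrane reagent, pulled down on streptavidin microbeads and FACS-sorted into low and high (top ~1%) gates on expression and reagent-binding fluorescence. Labels for polyreactivity follow the gate of origin.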

Row | Sequence | polyreactivity (PSR sort gate)
1 | QVQLVDSGGGLVQAGGSLRLSCAASGSTFYYYAMGWYRQAPGKERELVAAITYSGGSTTYADSVKGRFTFSRDNAKNTVYLQMNSLKPEDTAVYYCAAYVYRYHRVAYEYWGQGTQVTVSS | high polyreactivity
2 | QVQLVESGGGLVQAGGSLRLSCAASGRIIYSNGMGWYRQAPGKERELVAAISSGGSTYNADSVKGRFTISRDNAKNTVYLQMNSLKPEDTAVYYCAADIDYERDRYDYWGQGSQVTVSS | low polyreactivity
3 | QVQLVESGGGLVQAGGSLRLSCAASGRIFRVYAMGWYRQAPGKERQLVAAISYSGGRTFYADSVKGRFTISRDNSKNTVYLQMNSLIPEDTAVYYCAAKSYYTQALPPLDYWGQCTQVTVSS | low polyreactivity
4 | QEQLVESGGGLVQAGGSLRLSCAASGSIQPNAMGWYRQAPGKEREFVAAISRSGASTYYADSVKGRFTISRDNAKNTVYLQMNSLKPADTAVYYCAADFYYYNNNDYDYWGQGTQVTVSS | high polyreactivity
5 | QVQLVESGGGLVQAGGSLRLSCAASGSTFARNARGWYRQAPGKERELVAAITTRGSSTYYADSVKGRFTISRDNAKNTVYLQMHSLKPEDTAVYYCAADSRRSWYWGGYRQTGMGYWGQGTQVTVSS | high polyreactivity
6 | QVQLVESGGGLVQAGGSLRLSCAASGSTFVYYAMGWYRKAPGKERELVAAITSSGGSTHYADSVKGRFTISRDNAKNTVYLQMNSLKPEDTAVYYCAVGALGVYGHYGYWGQGTQVTVSS | low polyreactivity
7 | QVQLVESGGGLVQAGGSLRLSCAASGFTFFENAMGWYRQAPGKERELVAAIRKSGDRTYYADSVKGRFTISRDNAKNTVYLQMNSLKPEDTAVYYCAAPLSLRSSFGSWGQGTQVTVSS | high polyreactivity
8 | QVQLVESGGGLVQAGGSLRLSCAASGITVGYYAMGWYRLAPGKERELVAAITRGGGSTYYADSVKGRFTISRDNAKYTVYVQKNSLKPEDTAVYYCAAKTSGPGAGHDYWGQGTQVTVSS | high polyreactivity
9 | QVQLVESGGGLVQAGGSLRLSCAASGFILYYYAMGWYRQAPGKERELVASISRRGGSTYYADSVKGRFTISRDNAKNTVYLQMNSLKPEDTAVYYCAATETTSRRFGYDYWGQGTQVTVSS | high polyreactivity
10 | QLQLVESVGGLVHAGGSLRLSCAASGSTFVLYAMGWYRQAPGKERELVATITTSGARTHYADSVKGRFTISRDNAKNTVYLQMNRLKPEDTAVYNCAAESYWTGDDYWGQGTQVTVSS | low polyreactivity
11 | QVQLVESGGGLVQAGGRLRLSCAASGRTFEGYAMAWYRQAPGKERELVAAISGSSGSTYYADSVKGRFTISRDNAKNTVYLQMNSLKPEDTAVYYCNADYDWPGGSDYWGQGTQVTVSS | low polyreactivity
12 | QVPLVESGGGLVQAGGSLRISCAASGSILQYYALGWYRQAPGKERELVASISSSSGSTYYADSVKGRFTISRDNAKNTVYLQMNSLKPEDTAVYYCNARGWTLAADFGYWGQATQVTVSS | low polyreactivity
13 | QVQLVESGGGLVQAGGSLRLSCAASGRTFWGNAMGWYRQAPGKERELVASISSRGSSTYYADSVKGRFTISRDNAKNTVYLQMNSLKPEDTAVYYCAARTHYFPWPWYVWDYDSWGQGTQVTVSS | low polyreactivity
14 | QVQLVESGGGLVQAGGSLRLSCAASGSTFTPNAMGWYRQAPGKERELVAAITTRGSSTYYADSVKGRFTISRDNAKNTVYLQMNSLKPEDTAVYYCNAGVTFRRYDYWGQGTQVTVSS | high polyreactivity
15 | QVQLVESGGGLVQAGGSLRLSCAASGFIFSKYAMGWYRQAPGKERELVASISTSGGSTYYADSVKGRFTISRDNAKNTVYLQMNSLKPEDTAVYYCAVASRSHGYKRAYYYWGQGTQVTVSS | high polyreactivity
16 | QVQLVESGGGLVQAGGSLRLSCAASGRIYPAYAMGWSRQAPGKERELVASIRRGGITYADSVKGRFTISRDNAKNTVYLQMNSLKPEDTAVYYCNADYRGWGYHMDYWGQGTQVTVSS | low polyreactivity
17 | QVQLVESGGGLVQAGGSLRLSCAASGFIFVVYTMGGYRQEPGKVRELVAAITSGGSTYYADSVKGRFTISRDNAKNTVYLQMNSLKPEDTAVYYCNALASRYQAYYYWGQGTQVTVSS | low polyreactivity
18 | QVQLVESGGGLVQAGGSLRLSCAASGSIFHRNTMGWYRQAPGKEREFVAGISWGGGRTYYADSVKGRFTISRDNAKNTVYLQMNSLKPEETAVYYCAAKTGGGGRLSTVYYWGQGTQVTLSS | high polyreactivity
19 | QVQLVESGGGLVQAGGSLRLSCAASGRIFSPNAMGWYRQAPGKERELVAAITRGGSTNYADSVKGRFTISRDNAKNTVYLQMNSLKPEDTAVYYCAAQLAKTISGRGYNSWGQGTQVTVSS | low polyreactivity
20 | QVQLVESGGGLVQAGGSLRLSCAASGSTFYANAMGWYRQAPGKERELVAAIDSGGTTTYADSVKGRFTISRDNAKNTVYLQMNSLKPEDTAVYYCAADQYWYIWYDYWGQGTQVTVSS | low polyreactivity
21 | QVQLVESGGGLVQAGGSLRLSCAASGSTFIGYDMGWYRQAPGQERELVAAISYSDGTYYADSVKGRFTISRDNAKNTVYLQMNSLKPEDTAVYYCATSYRDMGSHVGYWGQGTQLTVSS | low polyreactivity
22 | QVQLVESGGGLVQAAGSLRLSCAASGITFSWYAMGWYRQAPGNERALVASITQSGGSTYYADSVKGRFTISRDNAKNTVYLQMTCLKPEVTAVYYCSKRYLKPVYCYVRNYGSDYWGQGTQVTVSS | low polyreactivity

Row | Sequence | polyreactivity (PSR sort gate)
23 | QVQLVESGGGLVQAGGSLRLSCAASGRTFVTNAMGWYRQAPGKERELVAAISSGDDSTYYADSVKGRFTISRDNAKNTVYLQMNSLKPEDTAVYYCAAEGYYVDYYFYFHGFDYWGQGTQVTVSS | high polyreactivity
24 | QVQLVESGGGLVQAGGSLRLSCAASGSIFYTYAMGWYRPAPGKEREFVAAITSSGGSTYYADSVKGRFTISRDNAKNTVYLQMNSLKPEDTAVYYCAARTPHYGKCYDIFDYWGQGTQVTVSS | low polyreactivity
25 | QVQHVESGGGLVQAGGSLRLSCAASGNIIPYNAKAWYRQAPGKERELVATISSGGSTYYADSVKGRFTISRDNAKNTVYLQMNSLKPEDTAVYYCAARGRYPYLYGYWGQGTQVTVSS | high polyreactivity
26 | QVQLVESGGGLVQAGGSLRLSCAASGRIFVGYGMGWYRQAPGKERELVASIDTGGSTYYADSVKGRFTISRDNAKNTVYLQMNSLKPDDTAVYYCAADYQSYTSLTGYHNSEGDPWGQGTQVTVSS | low polyreactivity
27 | QVQLVESGGRLVQAGGSLRLSCAASGRTFQGNAMGWSRQAPGKERELVAAISIRSGRTYYADSVKGRFTISRDNAKNTVYLQMNSLKPEDTAVYYCAAYRGKVRYDYWGQGTQVTVSS | high polyreactivity
28 | QVQLVESRGGLVQAGGSLRLSCAASGRTFSNAMGWYRQAPGNERELVADISSGGSTNYADSVKGRFTISRDNAKNTVYLQMNSLKPEDTAVYYCAAVSGSRYGYSDDYWGQGTQVTVSS | low polyreactivity
29 | QVQLVESGGGLVQAGGSLRLSCAASGRILLRYAMGWYRQAPGQERELVAAISQRGGRTYYADSVKGRFTISRDNAKNTVNLQMNSLKPEDTAVYYCAAASQQRSPRYGYWGQGTQVTVSS | high polyreactivity
30 | QVQLVESGGGLVQAGGSLRLSCAASGRTFKYYAMGWYRQAPGKERELVAAISRGGSTNYADSVKGRFTISRDNAKNTVYLQVNSLKPEDTPVYYCAKDYVWYDEYDYWGQGTQVTVSS | low polyreactivity
31 | QVQLVESGGGLVQAGGSLRLSCAASGSILGYNAMGWYRQAPGKEREFVAAITYSGGTTYYADSVKGRFTISRDNAKNTVYLQMNSLKPEDTAVYYCAADYSVYDEFDYWGQGTQVTVSS | high polyreactivity
32 | QVQLVESGGGLVQAGGSLRLSCAASGRIFGAYTMGWYRQAPGKERELVAVISSRGTDTYYADSVKGRFTISRDNAKNTVYLQMNSLKPEDTAVYYCAKRWWYTTSPRRSGDYWGQGTQVTVSS | high polyreactivity
33 | QVQLVESGGGLVQAGGSLRLSCAASGRTFFGNAMGWYRQAPGKERELVAVISQGGGSTYYADSVKGRFTISRDNAKNTVYLQMNSLKPEDTAVYYCAKRYPHVGSGQLGGTYNYWGQGTQVTVSS | low polyreactivity
34 | LVQLQESGGGLVQAGGSLRLSCAASGTNSPGGYMGWYRKAPGKERELVASINVGGSTNYADSVKGRFTISRDNAKNTVYLQMNSLKPEDNAVYFCAVWGRNRLQLSYWGQGTQVTVSS | low polyreactivity
35 | QVQLADSGGGLVQAGGSLRLICAASGTFGSNAMGWYIQAPGKERELVAAINSGGTTKYADSVKGRFTISRDNAKNTVYLQMNRLKPEDSALYYCNAREGVFSYTVAHDYWGQGTQVTVSS | low polyreactivity
36 | QVQHVESGGGLVQSGGSHRLSCAASGSTFSDNSLGWYRQAPAKERELVAAISRSGGSTYYADSVNGRFTISRDYAKNTVYLQMNSLIPEDTAVYYCATNRVLTGYDSWGQGTQVTVSS | high polyreactivity
37 | HVQLVESGGALVQAGGSLRLSCAASGYIFYYYAMGWYRQAPGKERELVAAITFSGGSTYYADSVKGRFTISRDIAKNTVYLQMNSLKPEDTAGYYCDKVELRDAAELGSDEYDYWGQGTKVTVSS | low polyreactivity
38 | QVQLVESGGGLVQAGGSLRLSCAASGSIFYHNAMGWYRQAPGKERELVAAITSGGSTHYADSVKGRFTISRDNAKNTVYLQMNSLKPEDTAVYYCNARDRRRTNLLDYWGQGTQVTVSS | low polyreactivity
39 | QVQLVESGGGLVQAGGSIRLSCAASGSTFCVNAMGWDRQAPGKERELVAVITFTGSRTYYADSVKGRFTISRDNAKNTVYLQMNSLKPEDTAVYYCAADRRRVLYKFDYWGQGTQVTVSS | low polyreactivity
40 | QVQLVESGGGLVQAGGSLRLSCAASGFTFGTNAMGWYRQAPGKEMELVAAITWSGGRTYYADSVKGRFTISRDNAKNTVYLQMNSRKQEDTAVYYCAKQYYRNKYEYWGQGTQVTVSS | high polyreactivity
41 | QGQLVESGGGLVQAGGRLRLSCAATGLTFAKNAMGWYRQAPGKEREMFAAIRSGDDTTYADSVKGRFTISRDNAKNTVYLQMNSLKPEDSAEYYCAARYYRTWDGRFGYWGQGTQVTVSS | high polyreactivity
42 | QVQLVESGGGLVQARGSLRLSCAASGITFRVNAMGWYRPAPGKERELVAAISRGGGSTYYADSVKGRFTISRDNAKNTVYLQMNSLKPEDTAVYFCAASYGAPYGYKRYYYWGQGTQVTVSS | high polyreactivity
43 | QVQLVESGGGLVQAGGSLRLSCAGSGRIFTDYTMGWYRQAPGQERELVAAISYSGGSTYYADSVKGRFTISRDNAKNTVYLQMNSLKPEDTAVYYCNKDYYLHEGYGYWGQGTQVTVSS | low polyreactivity
